According to the supplement of paper PMC6757056:
± gives the standard deviation of the averaged measurements.

B1: library; a variant is named by its letters at N, in order (parent)
chain: GCUGUCACCGGUGCUUGGUACGUUAUAUUCAGCCGGUCUGAUGAGUCUNNNNNNAGACGAAACAGC

What was measured:
[1] = variants of: B1; test: FACS-Seq fitted mean relative fluorescence mCherry/BFP without ligand (log10 relative fluorescence); HEK293T overexpressing SLC46A1; higher = higher reporter protein expression; conditions: without (6R,S)-folinic acid; ligand present: no
Method in brief: (§1)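 Genomic DNA from 6 mCherry/BFP sort bins was PCR-amplified, barcoded and sequenced on MiSeq. The sorted cells were enriched HEK293T libraries, lentivirally transduced with a ribozyme-switch mCherry reporter and an EF1α-BFP marker, incubated with or without ligand for 48 h. Fluorescence derives from a normal fit to the bin counts. The fit was on log10(mCherry/BFP), and means were scaled to five spiked-in control ribozymes.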

[2] = variants of: B1; test: normalized RNA/DNA level without ligand (relative to sTRSVctl = 100) (log10 (% of sTRSVctl)); HEK293T overexpressing SLC46A1; higher = less ribozyme self-cleavage, higher mRNA level; conditions: without (6R,S)-folinic acid; ligand present: no
Description: (§2)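 Hammerhead (sTRSV) ribozyme switch libraries with a ligand aptamer grafted on stem I and a randomized N4-6 loop II, cloned into the 3' UTR of mCherry and transiently transfected into HEK293T cells; RNA-Seq 72 h post transfection with ligand added 1 h before transfection; RNA read count / plasmid DNA read count normalized to the non-cleaving sTRSVctl (x100), log10; sequences with >100 DNA reads. FACS-Seq: lentiviral library sorted into 6 bins after 48 h ligand, log-normal fit mean of mCherry/BFP scaled to controls. Printed sequences are partial switch sequences.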

[3] = variants of: B1; test: FACS-Seq fitted mean relative fluorescence mCherry/BFP with ligand (log10 relative fluorescence); HEK293T overexpressing SLC46A1; ligand concentration (+) FACS-Seq: 6 mM; higher = higher reporter protein expression; conditions: with (6R,S)-folinic acid; ligand present: yes
Method in brief: as §1

[4] = variants of: B1; test: normalized RNA/DNA level with ligand (relative to sTRSVctl = 100) (log10 (% of sTRSVctl)); HEK293T overexpressing SLC46A1; ligand concentration (+) RNA-Seq: 6 mM; higher = less ribozyme self-cleavage, higher mRNA level; conditions: with (6R,S)-folinic acid; ligand present: yes
Description: as §2

| Variant | FACS-Seq fitted mean (log10) [1] | normalized RNA/DNA level without ligand (log10) [2] | FACS-Seq fitted mean (log10) [3] | normalized RNA/DNA level with ligand (log10) [4] |
| --- | --- | --- | --- | --- |
| GCUGUCACCGGUGCUUGGUACGUUAUAUUCAGCCGGUCUGAUGAGUCUACAAACAGACGAAACAGC [ACAAAC] | 0.439 ± 0.018 | 2.03 ± 0.025 | 0.419 ± 0.038 | 2.02 ± 0.043 |
| GCUGUCACCGGUGCUUGGUACGUUAUAUUCAGCCGGUCUGAUGAGUCUCAUAACAGACGAAACAGC [CAUAAC] | 0.339 ± 0.16 | 1.973 ± 0.0067 | 0.355 ± 0.045 | 1.97 ± 0.038 |
| GCUGUCACCGGUGCUUGGUACGUUAUAUUCAGCCGGUCUGAUGAGUCUGGGUAGAGACGAAACAGC [GGGUAG] | 0.0738 ± 0.081 | 1.979 ± 0.0061 | 0.00328 ± 0.082 | 2.013 ± 0.015 |
| GCUGUCACCGGUGCUUGGUACGUUAUAUUCAGCCGGUCUGAUGAGUCUGGGUAUAGACGAAACAGC [GGGUAU] | 0.149 ± 0.054 | 2.014 ± 0.015 | 0.284 ± 0.16 | 2.01 ± 0.033 |
| GCUGUCACCGGUGCUUGGUACGUUAUAUUCAGCCGGUCUGAUGAGUCUGGGUGCAGACGAAACAGC [GGGUGC] | 0.427 ± 0.079 | 1.969 ± 0.01 | 0.461 ± 0.023 | 2.011 ± 0.007 |
| GCUGUCACCGGUGCUUGGUACGUUAUAUUCAGCCGGUCUGAUGAGUCUUGUGUAAGACGAAACAGC [UGUGUA] | 0.429 ± 0.1 | 1.895 ± 0.0065 | 0.399 ± 0.015 | 2.01 ± 0.021 |
| GCUGUCACCGGUGCUUGGUACGUUAUAUUCAGCCGGUCUGAUGAGUCUAUUUUCAGACGAAACAGC [AUUUUC] | 0.447 ± 0.23 | 2.031 ± 0.0051 | 0.549 ± 0.048 | 2 ± 0.021 |
| GCUGUCACCGGUGCUUGGUACGUUAUAUUCAGCCGGUCUGAUGAGUCUAACUACAGACGAAACAGC [AACUAC] | 0.381 ± 0.012 | 2 ± 0.021 | 0.181 ± 0.25 | 2.005 ± 0.02 |
| GCUGUCACCGGUGCUUGGUACGUUAUAUUCAGCCGGUCUGAUGAGUCUUACAGAAGACGAAACAGC [UACAGA] | 0.358 ± 0.072 | 1.913 ± 0.011 | 0.548 ± 0.15 | 1.99 ± 0.037 |
| GCUGUCACCGGUGCUUGGUACGUUAUAUUCAGCCGGUCUGAUGAGUCUGCUACAAGACGAAACAGC [GCUACA] | -0.313 ± 0.09 | 2.017 ± 0.018 | -0.102 ± 0.14 | 2.03 ± 0.05 |
| GCUGUCACCGGUGCUUGGUACGUUAUAUUCAGCCGGUCUGAUGAGUCUGAUAGUAGACGAAACAGC [GAUAGU] | 0.846 ± 0.085 | 1.963 ± 0.018 | 0.563 ± 0.078 | 2 ± 0.022 |
| GCUGUCACCGGUGCUUGGUACGUUAUAUUCAGCCGGUCUGAUGAGUCUUUUGGAAGACGAAACAGC [UUUGGA] | 0.333 ± 0.049 | 1.9 ± 0.015 | 0.499 ± 0.056 | 1.98 ± 0.029 |
| GCUGUCACCGGUGCUUGGUACGUUAUAUUCAGCCGGUCUGAUGAGUCUGCUUUAAGACGAAACAGC [GCUUUA] | 0.213 ± 0.02 | 1.99 ± 0.026 | 0.0416 ± 0.19 | 1.98 ± 0.05 |
| GCUGUCACCGGUGCUUGGUACGUUAUAUUCAGCCGGUCUGAUGAGUCUAACCUUAGACGAAACAGC [AACCUU] | 0.578 ± 0.19 | 2.044 ± 0.0052 | 0.59 ± 0.22 | 2.042 ± 0.02 |
| GCUGUCACCGGUGCUUGGUACGUUAUAUUCAGCCGGUCUGAUGAGUCUCGCCAGAGACGAAACAGC [CGCCAG] | 0.509 ± 0.022 | 1.998 ± 0.013 | 0.216 ± 0.15 | 1.998 ± 0.016 |
| GCUGUCACCGGUGCUUGGUACGUUAUAUUCAGCCGGUCUGAUGAGUCUUUAUCUAGACGAAACAGC [UUAUCU] | 0.453 ± 0.099 | 2.0125 ± 0.0014 | 0.133 ± 0.1 | 2.03 ± 0.0072 |
| GCUGUCACCGGUGCUUGGUACGUUAUAUUCAGCCGGUCUGAUGAGUCUAUAAACAGACGAAACAGC [AUAAAC] | -0.0226 ± 0.13 | 1.998 ± 0.0043 | -0.127 ± 0.3 | 1.99 ± 0.026 |
| GCUGUCACCGGUGCUUGGUACGUUAUAUUCAGCCGGUCUGAUGAGUCUUAGAGAAGACGAAACAGC [UAGAGA] | 0.273 ± 0.12 | 1.807 ± 0.015 | 0.551 ± 0.33 | 1.99 ± 0.029 |
| GCUGUCACCGGUGCUUGGUACGUUAUAUUCAGCCGGUCUGAUGAGUCUGGGAAGAGACGAAACAGC [GGGAAG] | 0.485 ± 0.082 | 1.955 ± 0.015 | 0.402 ± 0.061 | 2.04 ± 0.027 |
| GCUGUCACCGGUGCUUGGUACGUUAUAUUCAGCCGGUCUGAUGAGUCUAUAGGCAGACGAAACAGC [AUAGGC] | 0.336 ± 0.054 | 2.013 ± 0.012 | 0.59 ± 0.1 | 2.047 ± 0.016 |
| GCUGUCACCGGUGCUUGGUACGUUAUAUUCAGCCGGUCUGAUGAGUCUGAUGGCAGACGAAACAGC [GAUGGC] | 0.227 ± 0.13 | 1.967 ± 0.019 | 0.542 ± 0.2 | 2.01 ± 0.021 |
